Measured values from the Human Domainome abundance scans (Beltran et al. 2025).
± gives the uncertainty stated by the source.

B1: Integrator complex subunit 12, residues 155 to 213; numbered along this chain, Q96CB8 (parent)
chain: AMEMGLACVVCRQMMVASGNQLVECQECHNLYHRDCHKPQVTDKEANDPRLVWYCARCT

Variants of: B1
Assay: abundance fitness (aPCA) (normalised: wild type 0, dead -1); higher = more abundant; growth selection in yeast, the domain comes from the species named
Details: Homo sapiens

Row | Variant | abundance fitness
1 | D43R | -0.25 ± 0.032
2 | L31F | 0.075 ± 0.034
3 | V23Q | -0.098 ± 0.06
4 | V10W | -0.381 ± 0.067
5 | L51D | 0.013 ± 0.066
6 | V10I | -0.047 ± 0.032
7 | S18F | -0.124 ± 0.034
8 | C25N | -0.773 ± 0.11
9 | V41W | -0.314 ± 0.056
10 | R50A | 0.014 ± 0.048
11 | L6Y | -0.063 ± 0.034
12 | C55S | -0.897 ± 0.075
13 | V41Y | -0.346 ± 0.12
14 | E45F | -0.192 ± 0.086
15 | D48H | -0.081 ± 0.15
16 | V41P | -0.211 ± 0.065
17 | E27Y | -0.208 ± 0.034
18 | A7I | 0.008 ± 0.039
19 | L51G | 0.069 ± 0.046
20 | V41G | -0.235 ± 0.041
21 | E45V | -0.038 ± 0.048
22 | G5M | -0.152 ± 0.055
23 | A46F | 0.07 ± 0.077
24 | D48Y | -0.178 ± 0.084

Row | Variant | abundance fitness
25 | V10E | -0.11 ± 0.064
26 | M2C | -0.112 ± 0.04
27 | R12D | 0.038 ± 0.041
28 | M15H | 0.083 ± 0.042
29 | V9K | -0.279 ± 0.07
30 | C8F | -1 ± 0.051
31 | C28H | -0.664 ± 0.047
32 | G19I | -0.137 ± 0.051
33 | Q13S | -0.033 ± 0.032
34 | C36N | -0.615 ± 0.044
35 | N20H | -0.015 ± 0.038
36 | H29K | 0.084 ± 0.073
37 | S18A | 0.017 ± 0.036
38 | L22V | -0.003 ± 0.039
39 | E24L | -0.376 ± 0.046
40 | C58D | -0.8 ± 0.093
41 | Y32Q | -0.3 ± 0.067
42 | E3K | -0.089 ± 0.065
43 | C36S | -0.716 ± 0.036
44 | C11W | -0.958 ± 0.12
45 | K44T | 0.043 ± 0.048
46 | E27G | -0.043 ± 0.031
47 | M2P | -0.31 ± 0.075
48 | V41L | -0.011 ± 0.045

Row | Variant | abundance fitness
49 | A46N | -0.082 ± 0.08
50 | C58S | -1.1 ± 0.074
51 | C11V | -1.06 ± 0.07
52 | R12K | 0.052 ± 0.053
53 | A46G | -0.029 ± 0.038
54 | R12N | 0.002 ± 0.034
55 | E27M | -0.103 ± 0.054
56 | H29R | -0.053 ± 0.033
57 | K38E | 0.008 ± 0.046
58 | P39A | -0.313 ± 0.056
59 | R34M | 0.005 ± 0.057
60 | Q21P | -0.072 ± 0.082
61 | G5H | 0.026 ± 0.042
62 | D48T | 0.016 ± 0.063
63 | H33M | -0.882 ± 0.084
64 | W53T | -0.13 ± 0.071
65 | L51T | 0.037 ± 0.07
66 | D43M | -0.056 ± 0.045
67 | H33A | -0.609 ± 0.039
68 | E45W | -0.248 ± 0.055
69 | A1K | 0.154 ± 0.25
70 | C25L | -0.866 ± 0.09
71 | K38W | -0.341 ± 0.055
72 | E3N | -0.056 ± 0.039

Row | Variant | abundance fitness
73 | C11H | -0.839 ± 0.055
74 | H37W | -0.297 ± 0.058
75 | L6E | -0.106 ± 0.059
76 | R34K | 0.229 ± 0.068
77 | L31Q | 0.084 ± 0.07
78 | N20K | 0.02 ± 0.072
79 | R34Y | 0.058 ± 0.073
80 | C28Y | -0.714 ± 0.04
81 | S18R | -0.066 ± 0.036
82 | V41F | -0.175 ± 0.097
83 | A7T | 0.032 ± 0.04
84 | V9Q | 0.051 ± 0.069
85 | Q26G | 0.039 ± 0.053
86 | T42G | 0 ± 0.038
87 | C28T | -0.749 ± 0.052
88 | Y54I | -0.113 ± 0.082
89 | V10Q | -0.157 ± 0.061
90 | C28R | -0.816 ± 0.042
91 | C11I | -0.856 ± 0.049
92 | E24W | -0.563 ± 0.096
93 | R34P | 0.067 ± 0.08
94 | K38T | 0.011 ± 0.045
95 | D43A | -0.05 ± 0.039
96 | R34F | 0.016 ± 0.076

Row | Variant | abundance fitness
97 | L51I | -0.282 ± 0.08
98 | N20F | -0.165 ± 0.035
99 | L22G | 0.013 ± 0.035
100 | Q21N | -0.056 ± 0.042
101 | V52M | -0.033 ± 0.055
102 | T42H | -0.089 ± 0.069
103 | C55L | -1.09 ± 0.089
104 | P49N | -0.17 ± 0.12
105 | E45L | -0.048 ± 0.049
106 | Q40D | -0.07 ± 0.071
107 | C25G | -0.66 ± 0.078
108 | M14K | 0.085 ± 0.055
109 | E27L | -0.105 ± 0.034
110 | Y32C | -0.207 ± 0.04
111 | D35H | 0.071 ± 0.036
112 | Q26T | -0.052 ± 0.048
113 | Q26Y | -0.017 ± 0.051
114 | C36D | -0.802 ± 0.051
115 | A17L | -0.179 ± 0.041
116 | A1G | -0.115 ± 0.044
117 | A46Y | -0.029 ± 0.071
118 | V9S | -0.118 ± 0.032
119 | M14V | 0.06 ± 0.035
120 | C58N | -1.05 ± 0.18

Row | Variant | abundance fitness
121 | N47Y | -0.223 ± 0.08
122 | G19V | -0.088 ± 0.035
123 | Q21H | 0 ± 0.05
124 | R34Q | 0.082 ± 0.066
125 | P49Y | -0.258 ± 0.1
126 | A17E | -0.04 ± 0.074
127 | L6K | 0.173 ± 0.054
128 | M2T | 0.073 ± 0.045
129 | C11L | -1.09 ± 0.057
130 | V23E | -0.251 ± 0.067
131 | C8E | -0.927 ± 0.12
132 | R34S | 0.009 ± 0.052
133 | T59E | 0.098 ± 0.14
134 | T59I | -0.103 ± 0.089
135 | H37F | -0.226 ± 0.033
136 | C8V | -1.14 ± 0.078
137 | M14P | -0.007 ± 0.14
138 | N20D | 0.005 ± 0.036
139 | V23Y | -0.046 ± 0.037
140 | C36P | -0.585 ± 0.058
141 | S18T | 0.037 ± 0.037
142 | R57V | -0.074 ± 0.038
143 | H33Y | -0.795 ± 0.047
144 | C28W | -0.891 ± 0.058

Row | Variant | abundance fitness
145 | Q26A | 0.007 ± 0.046
146 | L6W | -0.552 ± 0.066
147 | R50I | -0.242 ± 0.089
148 | A56K | -0.169 ± 0.057
149 | C8T | -0.814 ± 0.058
150 | Q21V | -0.068 ± 0.041
151 | D35N | -0.052 ± 0.035
152 | A46M | -0.201 ± 0.068
153 | V23D | -0.296 ± 0.042
154 | A17Y | -0.091 ± 0.044
155 | C25T | -0.622 ± 0.12
156 | E24N | -0.308 ± 0.044
157 | R12W | -0.405 ± 0.066
158 | R50N | 0.15 ± 0.12
159 | C58G | -0.851 ± 0.059
160 | H29N | -0.117 ± 0.036
161 | Y32P | -0.611 ± 0.056
162 | M4H | 0.065 ± 0.041
163 | L51N | -0.197 ± 0.077
164 | M2S | 0.065 ± 0.032
165 | Y32S | -0.315 ± 0.033
166 | W53P | -0.302 ± 0.058
167 | V10H | -0.161 ± 0.038
